Measurements: article PMC2132707
Values joined by “and” are separate entries in the source; they are usually repeats but may differ in a detail not shown here. Equal values may be shown once.

Target: heavy chains (Iα and Iβ) of inner arm dynein I1 (Chlamydomonas reinhardtii (endogenous in axonemes)) (UniProt Q9SMH3)
Assay: quantitative densitometry of Coomassie blue-stained gels

Chlamydomonas 8,000-M r LC (natural protein)
most likely relative stoichiometry (relative to the HCs) (relative to the HCs): 4 to 5.5 | relative stoichiometry (relative to the HCs) (relative to the HCs): 4 to 5.5

IC97 of inner arm dynein I1 (natural protein)
most likely relative stoichiometry (relative to the HCs) (relative to the HCs): 0.5 to 1 | relative stoichiometry (relative to the HCs) (relative to the HCs): 0.95 and 0.67 and 0.56

IC140 of inner arm dynein I1 (natural protein)
most likely relative stoichiometry (relative to the HCs) (relative to the HCs): 0.5 to 1 | relative stoichiometry (relative to the HCs) (relative to the HCs): 0.71 and 0.53 and 0.63
